# US20220017622A1 (Pfizer, published 2022)
# Key:
# [1] = biological target: T1, human B7-H4 extracellular domain (human, UniProt Q7Z7D3 29-258); assay: SPR 37 C; bispecific (IgG2 scaffold) on anti-hFc chip, ECD analyte
# T1 construct: Soluble ECD used as SPR analyte; also called huB7-H4 ECD; huB7-H4
# T1 sequence: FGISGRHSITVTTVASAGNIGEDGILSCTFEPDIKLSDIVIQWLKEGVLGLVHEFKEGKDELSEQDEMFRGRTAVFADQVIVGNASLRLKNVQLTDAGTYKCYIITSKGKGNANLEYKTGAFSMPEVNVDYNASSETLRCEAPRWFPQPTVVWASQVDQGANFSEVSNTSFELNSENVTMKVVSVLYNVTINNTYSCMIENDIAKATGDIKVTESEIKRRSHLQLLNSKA
# [2] = biological target: T2, human CD3 (delta/epsilon heterodimer) (human, UniProt P07766 23-126; P04234 22-105); assay: SPR 37 C; CD3 delta/epsilon on anti-His chip, bispecific (IgG2 scaffold) analyte
# T2 construct: captured on an anti-His chip, so it carries a His tag; also called huCD3
# [3] = biological target: T2, human CD3 (delta/epsilon heterodimer); assay: SPR 25 C; CD3 delta/epsilon on anti-His chip, bispecific analyte
# [4] = biological target: T3, cyno CD3 (delta/epsilon heterodimer) (cyno, UniProt Q95LI5 22-117; Q95LI8 22-105); assay: as above
# T3 construct: also called cyCD3
# [5] = biological target: T4, cyno B7-H4 extracellular domain (cyno, UniProt Q7Z7D3 29-258 (human entry)); assay: SPR 37 C; bispecific on anti-hFc chip, ECD analyte
# T4 construct: Soluble ECD used as SPR analyte; also called cyB7-H4 ECD; cyB7-H4
# T4 sequence: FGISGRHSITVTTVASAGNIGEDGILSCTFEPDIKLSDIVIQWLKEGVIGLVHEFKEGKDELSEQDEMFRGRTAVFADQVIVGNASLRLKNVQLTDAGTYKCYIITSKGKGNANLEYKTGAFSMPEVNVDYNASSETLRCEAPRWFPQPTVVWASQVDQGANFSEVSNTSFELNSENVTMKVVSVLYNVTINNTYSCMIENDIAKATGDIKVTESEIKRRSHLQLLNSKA
# [6] = biological target: T1, human B7-H4 extracellular domain; assay: SPR 37 C; bispecific on anti-hFc chip, ECD analyte
# human B7-H4 on cells = biological target: T5, human B7-H4 on cells (human, UniProt Q7Z7D3 25-282); assay: cell-based or functional assay
# T5 sequence (looked up): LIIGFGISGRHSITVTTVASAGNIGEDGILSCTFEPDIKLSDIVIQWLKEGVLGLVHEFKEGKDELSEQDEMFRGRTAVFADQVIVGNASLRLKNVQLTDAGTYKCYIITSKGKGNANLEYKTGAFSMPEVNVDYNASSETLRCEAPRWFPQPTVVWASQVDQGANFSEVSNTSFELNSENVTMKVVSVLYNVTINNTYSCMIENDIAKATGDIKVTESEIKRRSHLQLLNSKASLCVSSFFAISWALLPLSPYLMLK
# [7] = biological target: T2, human CD3 (delta/epsilon heterodimer); assay: SPR 37 C; CD3 delta/epsilon on anti-His chip, bispecific analyte
# [8] = biological target: T3, cyno CD3 (delta/epsilon heterodimer); assay: as above
# [9] = biological target: T4, cyno B7-H4 extracellular domain; assay: SPR 25 C; bispecific on anti-hFc chip, ECD analyte
# [10] = biological target: T1, human B7-H4 extracellular domain; assay: SPR 25 C; bispecific on anti-hFc chip, ECD analyte
# [11] = biological target: T6, mouse B7-H4 extracellular domain (mouse, UniProt Q7TSP5 29-258); assay: SPR 25 C; bispecific on anti-hFc chip, ECD analyte
# T6 construct: Soluble ECD used as SPR analyte; also called muB7-H4 ECD; muB7-H4
# T6 sequence: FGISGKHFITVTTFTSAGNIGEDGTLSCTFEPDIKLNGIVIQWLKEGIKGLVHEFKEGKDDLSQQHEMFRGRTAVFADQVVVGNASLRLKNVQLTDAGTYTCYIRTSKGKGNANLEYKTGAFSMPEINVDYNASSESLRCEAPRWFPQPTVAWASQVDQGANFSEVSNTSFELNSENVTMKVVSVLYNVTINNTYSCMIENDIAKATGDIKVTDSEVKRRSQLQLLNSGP
# [12] = biological target: T2, human CD3 (delta/epsilon heterodimer); assay: SPR 37 C; CD3 delta/epsilon on anti-His chip, bispecific analyte; CD3 variant 2B5v6
# [13] = biological target: T4, cyno B7-H4 extracellular domain; assay: SPR 37 C; bispecific on anti-hFc chip, ECD analyte; remark: listed apart in the source
# [14] = biological target: T1, human B7-H4 extracellular domain; assay: SPR 37 C; bispecific on anti-hFc chip, ECD analyte; remark: listed apart in the source
# [15] = biological target: T6, mouse B7-H4 extracellular domain; assay: SPR 37 C; bispecific on anti-hFc chip, ECD analyte
# [16] = biological target: T7, rat B7-H4 extracellular domain (rat, UniProt Q501W4 29-257); assay: SPR 37 C; bispecific on anti-hFc chip, ECD analyte
# T7 construct: Soluble ECD used as SPR analyte; also called ratB7-H4 ECD
# T7 sequence: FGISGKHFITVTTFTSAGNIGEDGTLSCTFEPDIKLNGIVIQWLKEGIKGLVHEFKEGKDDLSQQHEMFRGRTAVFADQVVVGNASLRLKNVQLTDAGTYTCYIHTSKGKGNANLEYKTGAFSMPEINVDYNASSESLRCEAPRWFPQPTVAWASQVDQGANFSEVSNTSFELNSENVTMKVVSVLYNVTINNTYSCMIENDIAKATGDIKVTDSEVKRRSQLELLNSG
# T2 sequence (P07766 23-126, stated change not applied, chain 1 of 2): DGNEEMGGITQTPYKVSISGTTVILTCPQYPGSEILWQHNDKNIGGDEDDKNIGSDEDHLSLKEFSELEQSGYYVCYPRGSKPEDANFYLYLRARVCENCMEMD
# T2 sequence (P04234 22-105, stated change not applied, chain 2 of 2): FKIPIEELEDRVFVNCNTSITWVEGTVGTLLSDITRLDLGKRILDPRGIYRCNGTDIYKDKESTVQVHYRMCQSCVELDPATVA
# T3 sequence (Q95LI5 22-117, stated change not applied, chain 1 of 2): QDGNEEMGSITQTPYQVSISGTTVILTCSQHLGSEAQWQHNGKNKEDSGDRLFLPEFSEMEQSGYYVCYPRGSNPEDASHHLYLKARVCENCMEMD
# T3 sequence (Q95LI8 22-105, stated change not applied, chain 2 of 2): as the sequence (P04234 22-105, stated change not applied, chain 2 of 2) above, with I5V, N15K, I20V, S32T, D33N, I34N, T64A, S74N, V83L counted along it
binder,measurement,setting,value
"B7-H4xCD3 bispecific antibody 0074 (bispecific antibody, IgG2, Chains 1-2: B7-H4 arm; chains 3-4: CD3 arm; IgG2 EEE/RRR; also called anti-B7-H4 clone 28D10; CD3 variant 2B5v6) heavy 1: QVQLQQWGAGLLKPSETLSLTCAVYGGSFSGYYWNWIRQPPGKGLEWIGEINHSGSTKYNPSLKSRVTISGDTSKNQFSLKLNSVTAADTAVYYCVRGLYNWNVDSWGQGTLVTVSSASTKGPSVFPLAPCSRSTSESTAALGCLVKDYFPEPVTVSWNSGALTSGVHTFPAVLQSSGLYSLSSVVTVPSSNFGTQTYTCNVDHKPSNTKVDKTVERKCEVECPECPAPPVAGPSVFLFPPKPKDTLMISRTPEVTCVVVAVSHEDPEVQFNWYVDGVEVHNAKTKPREEQFNSTFRVVSVLTVVHQDWLNGKEYKCKVSNKGLPSSIEKTISKTKGQPREPQVYTLPPSREEMTKNQVSLTCEVKGFYPSDIAVEWESNGQPENNYKTTPPMLDSDGSFFLYSKLTVDKSRWQQGNVFSCSVMHEALHNHYTQKSLSLSPGK light 1: DIQMTQSPSSLSASVGDRVTITCRASQGIRNDLGWYQQKPGKAPKRLIYVASSLQSGVPSRFSGSGSGTEFTLTISSLQPEDFATYYCLQHNSYPYTFGQGTKLEIKRTVAAPSVFIFPPSDEQLKSGTASVVCLLNNFYPREAKVQWKVDNALQSGNSQESVTEQDSKDSTYSLSSTLTLSKADYEKHKVYACEVTHQGLSSPVTKSFNRGEC heavy 2: EVQLVESGGGLVQPGGSLRLSCAASGFTFSDYYMTWVRQAPGKGLEWVAFIRNQARGYTSDHNPSVKGRFTISRDNAKNSLYLQMNSLRAEDTAVYYCARDRPSYYVLDYWGQGTTVTVSSASTKGPSVFPLAPCSRSTSESTAALGCLVKDYFPEPVTVSWNSGALTSGVHTFPAVLQSSGLYSLSSVVTVPSSNFGTQTYTCNVDHKPSNTKVDKTVERKCRVRCPRCPAPPVAGPSVFLFPPKPKDTLMISRTPEVTCVVVAVSHEDPEVQFNWYVDGVEVHNAKTKPREEQFNSTFRVVSVLTVVHQDWLNGKEYKCKVSNKGLPSSIEKTISKTKGQPREPQVYTLPPSREEMTKNQVSLTCLVKGFYPSDIAVEWESNGQPENNYKTTPPMLDSDGSFFLYSRLTVDKSRWQQGNVFSCSVMHEALHNHYTQKSLSLSPGK light 2: DIQMTQSPSSLSASVGDRVTITCTSSQSLFNVRSQKNYLAWYQQKPGKAPKLLIYWASTRESGVPSRFSGSGSGTDFTLTISSLQPEDFATYYCKQSYDLFTFGGGTKVEIKRTVAAPSVFIFPPSDEQLKSGTASVVCLLNNFYPREAKVQWKVDNALQSGNSQESVTEQDSKDSTYSLSSTLTLSKADYEKHKVYACEVTHQGLSSPVTKSFNRGEC",Kd,[1],0.0182 µM
same,koff,[1],0.00582 s⁻¹
same,kon,[1],319000 M⁻¹ s⁻¹
same,Kd,[2],0.0569 µM
same,koff,[2],0.0336 s⁻¹
same,kon,[2],592000 M⁻¹ s⁻¹
same,Kd,[3],0.00738 µM
same,koff,[3],0.00559 s⁻¹
same,kon,[3],758000 M⁻¹ s⁻¹
same,Kd,[4],0.00833 µM
same,koff,[4],0.00534 s⁻¹
same,kon,[4],642000 M⁻¹ s⁻¹
same,Kd,[5],0.0309 µM
same,koff,[5],0.00581 s⁻¹
same,kon,[5],188000 M⁻¹ s⁻¹
same,Kd,[6],0.0219 µM
same,koff,[6],0.00602 s⁻¹
same,kon,[6],275000 M⁻¹ s⁻¹
same,"T cell mediated tumor cell killing EC50, HCC1954-Luc",human B7-H4 on cells,0.073 µM
same,"T cell mediated tumor cell killing, MDA-MB-468",human B7-H4 on cells,42
same,"T cell mediated tumor cell killing, OVCAR3-Luc",human B7-H4 on cells,31
same,"T cell mediated tumor cell killing, T47D",human B7-H4 on cells,224
same,Kd,[7],0.0419 µM
same,koff,[7],0.0234 s⁻¹
same,kon,[7],558000 M⁻¹ s⁻¹
same,Kd,[8],0.0471 µM
same,koff,[8],0.0239 s⁻¹
same,kon,[8],507000 M⁻¹ s⁻¹
same,Kd,[9],0.00929 µM
same,koff,[9],0.0012 s⁻¹
same,kon,[9],129000 M⁻¹ s⁻¹
same,Kd,[10],0.00683 µM
same,koff,[10],0.0012 s⁻¹
same,kon,[10],176000 M⁻¹ s⁻¹
same,Kd,[11],0.299 µM
same,koff,[11],0.0299 s⁻¹
same,kon,[11],100000 M⁻¹ s⁻¹
same,Kd,[12],0.0569 µM
same,koff,[12],0.0336 s⁻¹
same,kon,[12],592000 M⁻¹ s⁻¹
same,Kd,[13],0.00881 µM
same,koff,[13],0.00487 s⁻¹
same,kon,[13],553000 M⁻¹ s⁻¹
same,Kd,[14],0.00886 µM
same,koff,[14],0.00509 s⁻¹
same,kon,[14],575000 M⁻¹ s⁻¹
same,Kd,[15],0.776 µM
same,koff,[15],0.134 s⁻¹
same,kon,[15],173000 M⁻¹ s⁻¹
same,Kd,[16],1.12 µM
same,koff,[16],0.131 s⁻¹
same,kon,[16],117000 M⁻¹ s⁻¹
